The RNAGym collection of RNA variant scans (doi:10.7554/elife.80360)

B1: Hairpin Ribozyme (parent)
chain: GUCCUCUUUCACGUGCGCGUGAAAGAGAGAAGUGAACCAGAGAAACACACGUUGUGGUAUAUUACCUGGUA

Variants of: B1
Assay: self-cleavage, relative activity (ratio to wild type); higher = more cleavage; co-transcriptional

| Variant | self-cleavage |
| --- | --- |
| GUCCUCUUUCCCGUGCGCGUGAAAGAGAGAAGUGAACCAGAGAAACACACGUUGUGGUAUAUUACCUGCUA [A11C G69C] | 0.182 |
| GUCCUCUUUCCCGUGCGCGUGAAAGAGAGAAGUGAAGCAGAGAAACACACGUUGUGGUAUAUUACCUGGUA [A11C C37G] | 0.435 |
| GUCCUCUUUCCCGUGCGCGUGAAAGAGAGAAGUGAAACAGAGAAACACACGUUGUGGUAUAUUACCUGGUA [A11C C37A] | 0.37 |
| GUCCUCUUUCCCGUGCGCGUGAAAGAGAGAAGUGAAUCAGAGAAACACACGUUGUGGUAUAUUACCUGGUA [A11C C37U] | 0.494 |
| GUCCUCUUUCGCGUGCGCGUGAAAGAGAGAAGUGAACCAGAGAAACACACGUUGUGGUAUAUUACCUGGUG [A11G A71G] | 0.814 |
| GUCCUCUUUCGCGUGCGCGUGGAAGAGAGAAGUGAACCAGAGAAACACACGUUGUGGUAUAUUACCUGGUA [A11G A22G] | 0.774 |
| GUCCUCUUUCGCGUGCGCGUGCAAGAGAGAAGUGAACCAGAGAAACACACGUUGUGGUAUAUUACCUGGUA [A11G A22C] | 0.779 |
| GUCCUCUUUCGCGUGCGCGUGUAAGAGAGAAGUGAACCAGAGAAACACACGUUGUGGUAUAUUACCUGGUA [A11G A22U] | 1.01 |
| GUCCUCUUUCCCGUGCGCGUGAAAGAGAGAAGUGAACCAGAGAAACACACGUUUUGGUAUAUUACCUGGUA [A11C G54U] | 0.583 |
| GUCCUCUUUCCCGUGCGCGUGAAAGAGAGAAGUGAACCAGAGAAACACACGUUCUGGUAUAUUACCUGGUA [A11C G54C] | 0.378 |
| GUCCUCUUUCCCGUGCGCGUGAAAGAGAGAAGUGCACCAGAGAAACACACGUUGUGGUAUAUUACCUGGUA [A11C A35C] | 0.764 |
| GUCCUCUUUCGCGUGCGCGUGAAAGAGAGAAGUGAUCCAGAGAAACACACGUUGUGGUAUAUUACCUGGUA [A11G A36U] | 0.512 |
| GUCCUCUUUCCCGUGCGCGUGAAAGAGAGAACUGAACCAGAGAAACACACGUUGUGGUAUAUUACCUGGUA [A11C G32C] | 0.0648 |
| GUCCUCUUUCCCGUGCGCGUGAAAGAGAGAAGUGAACCAGAGAAACACACGUUGUGGUAUAUGACCUGGUA [A11C U63G] | 0.134 |
| GUCCUCUUUCCCGUGCGCGUGAAAGAGAGAAGUGAACCAGAGAAACACACGUUGUGGUAUAUCACCUGGUA [A11C U63C] | 0.141 |
| GUCCUCUUUCCCGUGCGCGUGAAAGAGAGAAGUGAACCAGAGAAACACAAGUUGUGGUAUAUUACCUGGUA [A11C C50A] | 0.288 |
| GUCCUCUUUCGCGUGCGCGUGAAAGAGAGAAGUGAACCAGAGAAACACGCGUUGUGGUAUAUUACCUGGUA [A11G A49G] | 0.577 |
| GUCCUCUUUCGCGUGCGCGUGAAAGAGAGAAGUGAACCAGAGAAACACUCGUUGUGGUAUAUUACCUGGUA [A11G A49U] | 0.208 |
| GUCCUCUUUCCCGUGCGCGUGAAAGACAGAAGUGAACCAGAGAAACACACGUUGUGGUAUAUUACCUGGUA [A11C G27C] | 0.165 |

| Variant | self-cleavage |
| --- | --- |
| GUCCUCUUUCCCGUGCGCGUGAAAGAAAGAAGUGAACCAGAGAAACACACGUUGUGGUAUAUUACCUGGUA [A11C G27A] | 0.403 |
| GUCCUCUUUCCCGUGCGCGUGAAAGAGAGAAGUGAACCAGAGAAACACACGUUGUGGCAUAUUACCUGGUA [A11C U58C] | 1.16 |
| GUCCUCUUUCCCGUGCGCGUGAAAGAGAGAAGUGAACCAGAGAAACACACGUUGUGGAAUAUUACCUGGUA [A11C U58A] | 0.635 |
| GUCCUCUUUCCCGUGCGCGUGAAAGAGAGAAGUGAACCAGAGAAACGCACGUUGUGGUAUAUUACCUGGUA [A11C A47G] | 0.0993 |
| GUCCUCUUUCCCGUGCGCGUGAAAGAGAGAAGUGAACCAGAGAAACCCACGUUGUGGUAUAUUACCUGGUA [A11C A47C] | 0.267 |
| GUCCUCUUUCCCGUGCGCGUGAAAGAGAGAAGUGAACCAGAGAAACACACGUGGUGGUAUAUUACCUGGUA [A11C U53G] | 0.863 |
| GUCCUCUUUCGGGUGCGCGUGAAAGAGAGAAGUGAACCAGAGAAACACACGUUGUGGUAUAUUACCUGGUA [A11G C12G] | 0.788 |
| GUCCUCUUUCCCGUGCGCGUGAAAGAGAGAAGUGACCCAGAGAAACACACGUUGUGGUAUAUUACCUGGUA [A11C A36C] | 0.471 |
| GUCCUCUUUCCCGGGCGCGUGAAAGAGAGAAGUGAACCAGAGAAACACACGUUGUGGUAUAUUACCUGGUA [A11C U14G] | 0.661 |
| GUCCUCUUUCCAGUGCGCGUGAAAGAGAGAAGUGAACCAGAGAAACACACGUUGUGGUAUAUUACCUGGUA [A11C C12A] | 0.636 |
| GUCCUCUUUCCCGUGCGCGUGAAAGAGAGACGUGAACCAGAGAAACACACGUUGUGGUAUAUUACCUGGUA [A11C A31C] | 0.116 |
| GUCCUCUUUCCCGUGCGCGUGAAAGAGAGAAGUGAACCAGAGAAACACACGUUGUGGUAUACUACCUGGUA [A11C U62C] | 0.278 |
| GUCCUCUUUCCCGUGCGCGUGAAAGAGAGAAGUGAACCAGAGAAACACACGUUGUGGUAUAAUACCUGGUA [A11C U62A] | 0.208 |
| GUCCUCUUUCGCGUGCGCGUGAAAGAGAGAAGUGAACCGGAGAAACACACGUUGUGGUAUAUUACCUGGUA [A11G A39G] | 0.323 |
| GUCCUCUUUCCCGUGCGCGUGAAAGAGAGAAGUGAACCAGAGAAACACCCGUUGUGGUAUAUUACCUGGUA [A11C A49C] | 0.192 |
| GUCCUCUUUCCCGUGCGCGUGAAAGAGAGAAGUGAACCAGAAAAACACACGUUGUGGUAUAUUACCUGGUA [A11C G42A] | 0.278 |
| GUCCUCUUUCCCGUGCGCGUGAAAGAGAGAAGUGAACCAGAGAAACACACGUUGUGAUAUAUUACCUGGUA [A11C G57A] | 0.116 |
| GUCCUCUUUCGCGUGCGCGUGAAAGGGAGAAGUGAACCAGAGAAACACACGUUGUGGUAUAUUACCUGGUA [A11G A26G] | 0.751 |
| GUCCUCUUUCGCGUGCGCGUGAAAGUGAGAAGUGAACCAGAGAAACACACGUUGUGGUAUAUUACCUGGUA [A11G A26U] | 0.645 |
